Biological target: SARS-CoV-2 spike ECD S-2P (SARS-CoV-2) (UniProt P0DTC2)

CR3022 (antibody)
EC50: 3.6 nM

From US20240327503A1
